In paper doi:10.1101/2024.12.07.627365 (bioRxiv, 2024) one finds Kd, koff and kon data, which are given here for one molecule.

The target in this assay is T1, Extended FH2 FMN1 (UniProt Q05860 961-1466).
T1 sequence (looked up): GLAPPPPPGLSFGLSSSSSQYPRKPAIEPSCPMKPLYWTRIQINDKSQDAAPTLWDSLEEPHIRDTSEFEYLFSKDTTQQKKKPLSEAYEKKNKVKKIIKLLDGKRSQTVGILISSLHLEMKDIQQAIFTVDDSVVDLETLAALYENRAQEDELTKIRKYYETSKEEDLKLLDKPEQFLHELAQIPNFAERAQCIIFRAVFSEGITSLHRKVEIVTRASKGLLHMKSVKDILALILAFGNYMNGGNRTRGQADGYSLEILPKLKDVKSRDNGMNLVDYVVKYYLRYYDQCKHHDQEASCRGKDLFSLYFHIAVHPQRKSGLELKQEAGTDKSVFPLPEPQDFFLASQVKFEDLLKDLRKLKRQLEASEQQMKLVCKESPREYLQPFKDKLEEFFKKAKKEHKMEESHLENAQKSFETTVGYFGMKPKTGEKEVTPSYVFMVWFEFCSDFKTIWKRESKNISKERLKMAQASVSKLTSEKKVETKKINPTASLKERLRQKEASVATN
Description: SPR. On the technique in general: In SPR one partner is held on a chip, and binding of the other changes the refractive index at the surface.

B1: N-terminal WW1-WW2 FNBP4 (domain or fragment, UniProt Q8N3X1 214-629, looked up)
chain: GIEMGDWQEVWDENTGCYYYWNTQTNEVTWELPQYLATQVQGLQHYQPSSVPGAETSFVVNTDIYSKEKTISVSSSKSGPVIAKREVKKEVNEGIQALSNSEEEKKGVAASLLAPLLPEGIKEEEERWRRKVICKEEPVSEVKETSTTVEEATTIVKPQEIMLDNIEDPSQEDLCSVVQSGESEEEEEQDTLELELVLERKKAELRALEEGDGSVSGSSPRSDISQPASQDGMRRLMSKRGKWKMFVRATSPESTSRSSSKTGRDTPENGETAIGAENSEKIDENSDKEMEVEESPEKIKVQTTPKVEEEQDLKFQIGELANTLTSKFEFLGINRQSISNFHVLLLQTETRIADWREGALNGNYLKRKLQDAAEQLKQYEINATPKGWSCHWDRDHRRYFYVNEQSGESQWEFPDG
The Kd is the free concentration of one partner at which half of the binding sites on the other are occupied at equilibrium, for simple one-to-one binding. A lower Kd goes with higher affinity. For orientation: koff means the rate constant with which the complex falls apart. Read a low koff as slow dissociation. A word on the kon: it is the rate constant with which the complex forms. High values mean fast association, low ones slow association. In the case of B1, binding was put at a Kd of 36.5 nM, the koff is 0.000803 s⁻¹ and the association rate constant (kon) was 22500 M⁻¹ s⁻¹.
